Data as given in patent US20230302083A1, “HIGHLY-NETWORKED C[…] COMPOSITION” (priority 2020, published 2023).

Target: HLA-A*0301 (human)

| Binder | HLA-A*0301 stabilization relative to HIV RK9 |
| --- | --- |
| VMCGGSLYVK (modifications not checked) | > 50% |
| KGIYQTSNFR (modifications not checked) | > 50% |
| GNYQCGHYK (modifications not checked) | > 50% |
| RVIHFGAGSDK (modifications not checked) | > 50% |
